Assay results reported in article PMC2791212, “N-Terminal Deletion of Peptide:N-Glycanase Results in Enhanced Deglycosylation Activity” (PLoS ONE, 2009).

Experiments:
[1] = target: T1, Peptide:N-glycanase from yeast (Png1p), full length (S. cerevisiae, UniProt Q02890 1-363); experiment: SPR; RNase B (40 µg/ml, 10 mM sodium acetate pH 5.31) amine-coupled to a CT405 chip; Png1p or Png1p-ΔH1 as analytes (80-1000 nM), 25°C, 10 mM HEPES pH 7.4, 5 µl/min; 1:1 Langmuir model, global fit; KD = koff/kon; conditions: both partners purified
T1 construct: Png1p (peptide:N-glycanase), S. cerevisiae W303-1a, gene amplified from genomic DNA, amino acids 1-363, cloned into EcoRI and HindIII sites of pET-22b(+); Plasmid pET-22b/png1p; eluted as 'Protein-His6'; The vector may add further residues at the N-terminus (cloning at EcoRI of pET-22b); also called PNGase; wild type Png1p; source: E. coli BL21 (DE3) pLysS, purified (Ni2+-NTA)
T1 sequence (looked up): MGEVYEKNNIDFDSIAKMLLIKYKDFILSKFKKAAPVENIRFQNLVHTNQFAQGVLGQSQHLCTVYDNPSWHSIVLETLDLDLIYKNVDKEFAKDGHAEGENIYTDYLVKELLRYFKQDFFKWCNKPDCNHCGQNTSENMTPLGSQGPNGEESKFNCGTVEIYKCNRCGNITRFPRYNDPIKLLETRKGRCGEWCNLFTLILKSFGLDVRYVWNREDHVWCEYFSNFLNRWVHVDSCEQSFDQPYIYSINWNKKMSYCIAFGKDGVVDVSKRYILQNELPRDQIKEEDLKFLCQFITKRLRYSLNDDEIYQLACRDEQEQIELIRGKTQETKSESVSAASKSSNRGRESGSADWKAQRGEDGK

[2] = target: T2, Png1p-ΔH1 (33-363 aa), N-terminal H1 helix deletion mutant of S. cerevisiae Png1p (S. cerevisiae, UniProt Q02890 33-363); experiment: as above; conditions: both partners purified
T2 construct: Png1p (peptide:N-glycanase), S. cerevisiae W303-1a, amino acids 33-363 (lacks the N-terminal H1 helix), cloned into EcoRI and HindIII sites of pET-22b(+); Plasmid pET-22b/png1p-ΔH1; eluted as 'Protein-His6'; also called N-terminal H1 deletion mutant; source: E. coli BL21 (DE3) pLysS, purified (Ni2+-NTA)
T2 sequence (looked up): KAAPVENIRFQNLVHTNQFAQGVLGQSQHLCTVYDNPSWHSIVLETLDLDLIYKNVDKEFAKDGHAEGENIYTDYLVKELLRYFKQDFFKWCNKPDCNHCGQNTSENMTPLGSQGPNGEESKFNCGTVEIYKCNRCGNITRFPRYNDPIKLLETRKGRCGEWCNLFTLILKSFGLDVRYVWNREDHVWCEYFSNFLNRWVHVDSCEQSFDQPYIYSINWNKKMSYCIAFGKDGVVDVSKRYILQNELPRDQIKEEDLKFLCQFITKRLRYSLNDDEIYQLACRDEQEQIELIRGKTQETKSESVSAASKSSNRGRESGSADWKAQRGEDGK

B1: Ribonuclease B (RNase B), denatured (natural protein, UniProt P61823 27-150, looked up)
chain: KETAAAKFERQHMDSSTSAASSSNYCNQMMKSRNLTKDRCKPVNTFVHESLADVQAVCSQKNVACKNGQTNCYQSYSTMSITDCRETGSSKYPNCAYKTTQANKHIIVACEGNPYVPVHFDASV
modifications: N-linked glycan (glycoprotein; position not stated)
notes: Ribonuclease B, the glycosylated form of pancreatic ribonuclease; Denatured by heating at 100°C for 10 min and rapid freezing (deglycosylation methods); also called denatured RNase B
- Kd [1]: 7.7 µM
- koff [1]: 0.094 s⁻¹
- kon [1]: 12200 M⁻¹ s⁻¹
- Kd [2]: 2.9 µM
- koff [2]: 0.05 s⁻¹
- kon [2]: 17000 M⁻¹ s⁻¹
